In PMC7190724, “Improved GPCR ligands from nanobody tethering” (Nature Communications, 2020):

B1: VHH_(PTHR) (VHH)
VHH: EVQLVESGGGLVQAGGSLRLSCAASGNIFANNIMGWYRQPPGKEREFVAHVSHDGDSMYAVSVKGRFAISRKDATNLYLQMNSLKPEDTAIYFCRLLNIPTQGRMEGFWGQGTQVTVSS
notes: VHH 22A3; sortase motif of the expressed construct PelB-VHH-LPETGG-His6; on sortagging what follows LPET is replaced by the GGG of the label; Expressed as PelB-VHH-LPETGG-His6; also called 22A3; VHH_(PTHR)-tetramethylrhodamine; source: E. coli WK6 (pHEN6 vector), osmotic shock, purified (Ni-NTA), then sortagged; not shown: His6, C-terminal, cleaved
B2: VHH6E (VHH)
VHH: QVQLQESGGGLVQPGGSLRLSCAASGFVFENSAMAWYRQAPGKERELIAVIGTTFIKLAESVKGRFTISRDNAKSTVYLQMNNLKPEDTAVYYCSKSGAYWGQGTQVTVSS
notes: VHH05; sortase motif of the expressed construct PelB-VHH-LPETGG-His6; on sortagging what follows LPET is replaced by the GGG of the label; Recognises a 14-mer peptide of UBC6e; also called VHH05; source: E. coli WK6 (pHEN6 vector), osmotic shock, purified (Ni-NTA), then sortagged; not shown: His6, C-terminal, cleaved

What was measured:
[1] = target: T1, rat PTHR1 (Rattus norvegicus, UniProt P25961); experiment: flow cytometry on cells; HEK293 cell lines stably transfected with PTHRs, in suspension, incubated on ice with 100 nM VHH sortagged with Alexafluor647, pelleted, washed and analysed; conditions: one partner purified
T1 construct: parathyroid hormone receptor-1, rat; also called rPTHR1; source: HEK293, stably transfected (GR35), on cells
T1 sequence (P25961 27-591): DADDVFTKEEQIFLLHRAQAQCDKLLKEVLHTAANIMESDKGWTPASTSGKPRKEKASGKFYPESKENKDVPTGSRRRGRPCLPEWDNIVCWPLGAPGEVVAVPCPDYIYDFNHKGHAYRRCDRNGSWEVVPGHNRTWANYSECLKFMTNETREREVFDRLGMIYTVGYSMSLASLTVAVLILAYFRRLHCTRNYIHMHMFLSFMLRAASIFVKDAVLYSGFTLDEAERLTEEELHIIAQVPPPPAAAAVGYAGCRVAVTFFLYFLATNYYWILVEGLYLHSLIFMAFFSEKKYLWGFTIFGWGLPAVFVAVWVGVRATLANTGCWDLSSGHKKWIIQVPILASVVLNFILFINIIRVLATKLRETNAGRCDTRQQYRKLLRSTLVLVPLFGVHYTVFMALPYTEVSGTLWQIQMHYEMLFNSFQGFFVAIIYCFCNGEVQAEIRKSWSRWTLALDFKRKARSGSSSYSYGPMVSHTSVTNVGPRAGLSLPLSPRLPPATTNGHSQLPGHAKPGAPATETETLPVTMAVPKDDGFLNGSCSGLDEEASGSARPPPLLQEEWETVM

[2] = target: T2, PTHR1_(6E) (Homo sapiens PTHR1 with 14-residue …, UniProt Q03431, chimera); experiment: flow cytometry on cells; dose response of staining with VHH-Alexafluor647 (median fluorescent intensity); cells in PBS, 1 h on ice; curves without plateau constrained to the plateau seen with other VHHs; conditions: one partner purified
T2 construct: PTHR1 from its start to the replaced 14-residue fragment of exon 2; replaces 14 residues of exon 2; PTHR1 from the end of the replaced fragment of exon 2 to its end; Made with the Q5 site-directed mutagenesis kit; whole receptor on cells; source: HEK293, stably transfected, on cells
T2 sequence (Q03431 whole entry, looked up, change not shown, the tested form may be a part): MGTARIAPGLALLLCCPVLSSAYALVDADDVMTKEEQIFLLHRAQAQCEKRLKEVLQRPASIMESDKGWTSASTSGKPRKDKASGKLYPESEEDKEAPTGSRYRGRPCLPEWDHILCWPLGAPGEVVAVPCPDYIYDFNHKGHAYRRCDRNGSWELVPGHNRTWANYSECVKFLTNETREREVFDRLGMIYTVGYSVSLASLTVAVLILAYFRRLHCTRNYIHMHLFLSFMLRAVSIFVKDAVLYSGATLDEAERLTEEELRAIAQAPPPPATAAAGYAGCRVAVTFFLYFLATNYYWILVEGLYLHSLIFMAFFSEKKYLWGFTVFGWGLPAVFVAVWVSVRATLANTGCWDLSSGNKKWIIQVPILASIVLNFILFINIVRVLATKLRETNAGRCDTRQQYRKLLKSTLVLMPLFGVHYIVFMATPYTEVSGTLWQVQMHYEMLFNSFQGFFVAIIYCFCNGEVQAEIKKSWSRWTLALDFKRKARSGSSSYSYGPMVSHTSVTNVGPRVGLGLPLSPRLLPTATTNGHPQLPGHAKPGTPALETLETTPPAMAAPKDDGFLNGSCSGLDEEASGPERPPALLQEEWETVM

Binder	binding result [1]	EC50 [2]
B1	binds	
B2		< 10 nM
